The target in data set [1] is T1, FAM‐ERα‐pTV peptide.
T1 peptide: {FAM}-KYYITGEAEGFPA[pT]V
The experiment in a line: fluorescence polarisation. In general terms: In fluorescence polarisation assays a small probe gives low polarisation when free and higher when bound to something large.

The target of data set [2] is T1, FAM‐ERα‐pTV peptide. The experiment in a line: fluorescence polarisation.
Data set [3] concerns the target T1, FAM‐ERα‐pTV peptide. The experiment in a line: fluorescence polarisation.
The data set “cross-linking” concerns the molecule itself. The experiment in a line: cross-linking.

Where no end group is shown, it is not given here. [ ]: non-standard residue; d: D form. pT = C[C@@H](OP(=O)(O)O)[C@H](N)C(=O)O; FAM = fluorescein

B1: recombinant N‐terminally GST‐tagged 14‐3‐3η (natural protein)
chain: MGDREQLLQRARLAEQAERYDDMASAMKAVTELNEPLSNEDRNLLSVAYKNVVGARRSSWRVISSIEQKTMADGNEKKLEKVKAYREKIEKELETVCNDVLSLLDKFLIKNCNDFQYESKVFYLKMKGDYYRYLAEVASGEKKNSVVEASEAAYKEAFEISKEQMQPTHPIRLGLALNFSVFYYEIQNAPEQACLLAKQAFDDAIAELDTLNEDSYKDSTLIMQLLRDNLTLWT
On to B1, for which the pEC50 (commonly the EC50 on a negative log10 scale, so that one unit is a factor of ten) with FAM‐ERα‐pTV peptide [1] is 5.13. The “pEC50 with FC-A (100 μM)” value in the data set with FAM‐ERα‐pTV peptide [2] is 6.16. Also, the “pEC50 with fragment 2 (1 mM)” value in the data set with FAM‐ERα‐pTV peptide [3] amounted to 5.92.

B2: His‐14‐3‐3γ (natural protein, UniProt P61981 1-247, looked up)
chain: MVDREQLVQKARLAEQAERYDDMAAAMKNVTELNEPLSNEERNLLSVAYKNVVGARRSSWRVISSIEQKTSADGNEKKIEMVRAYREKIEKELEAVCQDVLSLLDNYLIKNCSETQYESKVFYLKMKGDYYRYLAEVATGEKRATVVESSEKAYSEAHEISKEHMQPTHPIRLGLALNYSVFYYEIQNAPEQACHLAKTAFDDAIAELDTLNEDSYKDSTLIMQLLRDNLTLWTSDQQDDDGGEGNN
Regarding B2, the stoichiometry N (as a rule, a count of units in the complex or per binding partner) in “cross-linking” was determined as 2.

(Values after paper PMC9543038 (Chembiochem, 2022).)
